{"source": "patent US20040213795A1", "about": "(Pfizer, published 2004)", "binders": {"B1": {"name": "PD1-28 IgG (antibody, V domains shown)", "VH": "EVQLVQSGAEVKKPGASVKVSCKASGYRFTSYGISWVRQAPGQGLEWMGWISAYNGNTNYAQKLQGRVTMTTDTSTNTAYMELRSLRSDDTAVYYCARDADYSSGSGYWGQGTLVTVSS", "VL": "SYELTQPPSVSVSPGQTARITCSGDALPKQYAYWYQQKPGQAPVMVIYKDTERPSGIPERFSGSSSGTKVTLTISGVQAEDEADYYCQSADNSITYRVFGGGTKVTVL"}, "B2": {"name": "PD1-33 scFv (scFv, V domains shown)", "VH": "QVQLVQSGAEVKKPGASVRVSCKASGYTLTSYYIHWVRQAPGQGLEWMGIINPRGATISYAQKFQGRVTMTRDTSTSTVYMELRNLKSEDTALYYCATAGIYGFDFDYWGRGTLVTVSS", "VL": "QSALTQPASVSGSPGQSITISCTGTSNDVGGYNYVSWYQHHPGKAPKLIIYDVTNRPSGVSDRFSGSKSGNTASLTISGLLAEDEGDYYCSSYTIVTNFEVLFGGGTKLTV"}, "B3": {"name": "PD1-33 IgG (antibody, V domains shown)", "VH": "B2 VH", "VL": "B2 VL"}, "B4": {"name": "PD1-35 IgG (antibody, V domains shown)", "VH": "QVQLQESGPGLVKPSQTLSLTCTVSGGSISSGAYYWSWIRQHPGKGLEWIGYIYYNGNTYYNPSLRSLVTISVDASKNQFSLKLSSVTAADTAVYYCARASDYVWGGYRYMDAFDIWGRGTLITVSS", "VL": "not shown", "notes": "also called PD-35"}, "B5": {"name": "PD1-F2 scFv (scFv, V domains shown)", "VH": "EVQLVQSGGGVVQPGRSLRLSCAASGFTFSSYWMSWVRQAPGKGLEWVSAISGSGGSTYYADSVKGRFTISRDNSKNTLYLQMNSLRAEDTAVYYCAKENWGSYFDLWGQGTTVTVSS", "VL": "DIVMTQSPSTLSASVGDRVTITCRASQGISSWLAWYQQKPGRAPKVLIYKASTLESGVPSRFSGSGSGTDFTLTISSLQPEDFATYYCQQSYSTPWTFGQGTKLEIK"}, "B6": {"name": "PD1-F2 IgG (antibody, V domains shown)", "VH": "B5 VH", "VL": "DIVMTQSPSTLSASVGDRVTITCRASQGISSWLAWYQQKPGRAPKVLIYKASTLESGVPSRFSGSGSGTDFTLTISSLQPEDFATYYCQQSYSTPWTFGQGTKLEIKR", "notes": "also called anti-mouse PD1 antibody PD1-F2"}, "B7": {"name": "PD1-17 scFv (scFv, V domains shown)", "VH": "QVQLQESGPGVVKPSGTLSLTCAISGGSIGSGGSIRSTRWWSWVRQSPGKGLEWIGEIYHSGSTNYNPSLKSRVTISLDKSRNHFSLRLNSVTAADTAVYYCARQDYGDSGDWYFDLWGKGTMVTVSS", "VL": "NFMLTQPHSVSESPGKTVTISCTRSSGSIASNSVQWYQQRPGSSPTTVIYEDNQRPSGVPDRFSGSIDSSSNSASLTVSGLKTEDEADYYCQSSDSSAVVFGSGTKLTVL", "notes": "not shown: scFv linker, order of the domains and vector tags (pCANTAB6 phagemid library)"}, "B8": {"name": "PD1-17 IgG (antibody, V domains shown)", "VH": "B7 VH", "VL": "B7 VL", "notes": "also called anti-PD-1 antibody PD1-17"}, "B9": {"name": "PD1-28 scFv (scFv, V domains shown)", "VH": "B1 VH", "VL": "B1 VL", "notes": "as for B7"}}, "key": {"[1]": {"molecular_target": "T1, Human PD-1 fusion protein (human, UniProt Q15116 25-167)", "T1 construct": "also called Soluble PD-1 fusion protein; human PD-1/IgG chimera; not shown: fusion partner, called IgG in 'PD-1/IgG chimera'", "T1 sequence (Q15116 other isoform, or with tags, fused parts or gaps)": "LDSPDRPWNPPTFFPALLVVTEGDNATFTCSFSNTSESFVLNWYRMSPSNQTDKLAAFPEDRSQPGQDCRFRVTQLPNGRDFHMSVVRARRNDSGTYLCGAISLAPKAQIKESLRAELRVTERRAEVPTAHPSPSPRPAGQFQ", "assay": "IgG; inhibition of biotinylated human PD-L1 fusion binding to plate-bound human PD-1 fusion", "experimental": "Crude scFv-containing periplasmic extracts were obtained by subjecting the bacterial pellets from the overnight induction to osmotic shock. Pellets were resuspended in 20% (w/v) sucrose, 50 mM Tris-HCl, pH 7.5, 1 mM EDTA and cooled on ice for 30 minutes. Cellular debris was removed by centrifugation, and the scFv was purified by chromatography and buffer-exchanged into PBS. […] Binding of biotinylated PD-L1 fusion protein was detected with AMDEX-alkaline phosphatase, and the signal generated was measured by reading the absorbance at 405 nm using a microtiter plate reader. […]"}, "[2]": {"molecular_target": "T1, Human PD-1 fusion protein", "assay": "scFv; inhibition of biotinylated human PD-L1 fusion binding to plate-bound human PD-1 fusion", "experimental": "ScFv production was induced by addition of 1 mM IPTG to exponentially growing cultures and incubation overnight at 30° C. Crude scFv-containing periplasmic extracts were obtained by subjecting the bacterial pellets from the overnight induction to osmotic shock. Pellets were resuspended in 20% (w/v) sucrose, 50 mM Tris-HCl, pH 7.5, 1 mM EDTA and cooled on ice for 30 minutes. Cellular debris was removed by centrifugation, and the scFv was purified by chromatography and buffer-exchanged into PBS. Purified scFv's (PD1-17, PD1-28, PD1-33, and PD1-35) were tested for the ability to inhibit the binding of biotinylated human PD-L1 fusion protein to human PD-1 fusion protein immobilized on plastic in a 96 well microtiter plate assay. Binding of biotinylated PD-L1 fusion protein was detected with AMDEX-alkaline phosphatase, and the signal generated was measured by reading the absorbance at 405 nm using a microtiter plate reader. Data was expressed as a percentage of the total binding and a titration of scFv concentrations was tested to establish clone potency as calculated IC₅₀ values."}, "Murine PD-1 on cells [3]": {"molecular_target": "T2, Murine PD-1 on cells (mouse, UniProt Q02242 25-288)", "T2 construct": "also called Cells expressing murine PD-1", "T2 sequence": "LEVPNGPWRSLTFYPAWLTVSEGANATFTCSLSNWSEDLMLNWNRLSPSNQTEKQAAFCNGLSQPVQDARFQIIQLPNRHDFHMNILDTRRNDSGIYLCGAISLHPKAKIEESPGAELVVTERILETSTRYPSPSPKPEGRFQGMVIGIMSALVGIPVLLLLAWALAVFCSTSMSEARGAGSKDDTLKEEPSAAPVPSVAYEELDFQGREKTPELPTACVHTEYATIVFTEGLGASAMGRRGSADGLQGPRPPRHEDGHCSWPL", "assay": "scFv; inhibition of biotinylated murine PD-L1 fusion binding to cells expressing murine PD-1", "experimental": "(§1) PD1-F2 scFv was produced and purified as described above. Cells expressing murine PD-1 were added at 10⁵ cells/well in a final volume of 100 μl to a poly-D-lysine-coated 96 well microtiter plate. Cells were centrifuged and washed twice in PBS, then blocked with 300 μl […] in PBS for 1 hour at room temperature. Blocked cells were washed three times in PBST, prior to addition of 25 μl/well of assay buffer (0.05% BSA, 0.05% Tween 20 in Dulbecco's PBS) or sample, followed by 25 μl of biotinylated murine PD-L1 fusion protein at 300 ng/ml. Binding of biotinylated PD-L1 fusion protein was detected with Amdex alkaline phosphatase and signals read as described above."}, "[4]": {"molecular_target": "T3, Murine PD-1 fusion protein (mouse, UniProt Q02242 25-167)", "T3 construct": "also called mouse PD-1 fusion protein; not shown: fusion partner not described", "T3 sequence": "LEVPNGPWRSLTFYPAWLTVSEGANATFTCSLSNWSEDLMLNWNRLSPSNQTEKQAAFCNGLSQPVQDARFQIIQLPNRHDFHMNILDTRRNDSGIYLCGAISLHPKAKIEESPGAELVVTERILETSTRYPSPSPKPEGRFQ", "assay": "SPR (BIAcore 3000), murine PD-1 fusion immobilized on CM5 chip, antibody 7.81 to 125 nM in flow", "experimental": "The binding affinity of the anti-mouse PD1 antibody PD1-F2 was determined with a Surface Plasmon Resonance (SPR) system (BIAcore 3000) (Biacore, Piscataway, N.J.) using murine PD-1 fusion immobilized on a CM5 sensor chip. The concentration of PD1-F2 in the flow cell ranged from 7.81 to 125 nM, while the concentration of the anti-mouse PD1 antibody J43 (eBioscience, San Diego, Calif.) ranged from 25 nM to 500 nM."}, "Murine PD-1 on cells [5]": {"molecular_target": "T2, Murine PD-1 on cells", "assay": "IgG; inhibition of biotinylated murine PD-L1 fusion binding to cells expressing murine PD-1", "experimental": "as §1, with “Cells” for “PD1-F2 scFv was produced and purified as described above. Cells”"}}, "data": [{"binder": "B1", "values": [{"measurement": "IC50", "setting": "[1]", "value": 1.4, "unit": "nM"}]}, {"binder": "B2", "values": [{"measurement": "IC50", "setting": "[2]", "value": 74, "unit": "nM"}]}, {"binder": "B3", "values": [{"measurement": "IC50", "setting": "[1]", "value": 1.8, "unit": "nM"}]}, {"binder": "B4", "values": [{"measurement": "IC50", "setting": "[1]", "value": 2.3, "unit": "nM"}]}, {"binder": "B5", "values": [{"measurement": "IC50", "setting": "Murine PD-1 on cells [3]", "value": 28, "unit": "nM"}]}, {"binder": "B6", "values": [{"measurement": "Ka", "setting": "[4]", "value": "1.5e+08", "unit": "M⁻¹"}, {"measurement": "Kd", "setting": "[4]", "value": 6.7, "unit": "nM"}, {"measurement": "IC50", "setting": "Murine PD-1 on cells [5]", "value": 1, "unit": "nM"}]}, {"binder": "B7", "values": [{"measurement": "IC50", "setting": "[2]", "value": 726, "unit": "nM"}]}, {"binder": "B8", "values": [{"measurement": "IC50", "setting": "[1]", "value": 2.5, "unit": "nM"}]}, {"binder": "B9", "values": [{"measurement": "IC50", "setting": "[2]", "value": 560, "unit": "nM"}]}]}
